{"source": "patent US20190361012A1", "about": "(published 2019)", "molecules": {"B1": {"name": "His6-Rbp47b (other, Arabidopsis)", "chain": "HHHHHHMQTTNGSDSTLATSGATPPNQQTPPPPQQWQQQQQQQQQWMAAMQYPPAAAMMMMQQQQMLMYPHQYVPYNQGPYQQHHPQLHQYGSYQQHQHQQHKAIDRGSGDDVKTLWVGDLLHWMDETYLHSCFSHTGEVSSVKVIRNKLTSQSEGYGFVEFLSRAAAEEVLQNYSGSVMPNSDQPFRINWASFSTGEKRAVENGPDLSVFVGDLSPDVTDVLLHETFSDRYPSVKSAKVVIDSNTGRSKGYGFVRFGDENERSRALTEMNGAYCSNRQMRVGIATPKRAIANQQQHSSQAVILAGGHGSNGSMGYGSQSDGESTNATIFVGGIDPDVIDEDLRQPFSQFGEVVSVKIPVGKGCGFVQFADRKSAEDAIESLNGTVIGKNTVRLSWGRSPNKQWRGDSGQQWNGGYSRGHGYNNGGGYANHHDSNNYHGEN", "modifications": "the labelled partner carries RED-NHS (amine reactive) dye; the titrated partner is non-labeled", "notes": "Cloned as His6-Rbp47b-GFP in E. coli; The fraction that had spontaneously lost GFP (His6-Rbp47b) was used for MST; In the self-assembly assay labelled Rbp47b was titrated with non-labeled Rbp47b; also called Rb47b"}}, "key": {"[1]": {"target": "FBA6 protein expressed and purified from E. coli (Arabidopsis) (UniProt Q9SJQ9)", "sequence (Q9SJQ9 whole entry)": "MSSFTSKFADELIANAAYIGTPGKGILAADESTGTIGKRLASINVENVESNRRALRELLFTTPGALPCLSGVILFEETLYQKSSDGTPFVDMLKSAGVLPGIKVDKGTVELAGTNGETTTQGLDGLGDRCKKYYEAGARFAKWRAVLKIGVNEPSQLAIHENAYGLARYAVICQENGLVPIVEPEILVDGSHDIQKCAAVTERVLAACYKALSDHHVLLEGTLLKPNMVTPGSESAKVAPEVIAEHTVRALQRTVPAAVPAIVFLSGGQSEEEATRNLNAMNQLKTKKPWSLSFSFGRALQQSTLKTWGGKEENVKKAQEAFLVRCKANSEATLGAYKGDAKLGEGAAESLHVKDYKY", "assay": "microscale thermophoresis (MST), FBA6 purified from E. coli"}, "[2]": {"target": "TIA1 protein (recombinant, purchased from Origene) (human) (UniProt P31483)", "assay": "MST self-assembly, labelled TIA1 titrated with non-labeled TIA1, without 2′,3′-cAMP"}, "[3]": {"target": "TIA1 protein (recombinant, purchased from Origene) (human) (UniProt P31483)", "assay": "MST self-assembly, labelled TIA1 titrated with non-labeled TIA1, in the presence of 500 µM 2′,3′-cAMP"}, "[4]": {"target": "the molecule itself", "assay": "MST self-assembly, labelled Rbp47b titrated with non-labeled Rbp47b, without 2′,3′-cAMP", "method": "(§1) MST measurements were performed using a Monolith NT.115 instrument (NanoTemper, München, Germany). Capillaries were loaded into the instrument as sets of 13-16 point ligand titrations. […] Excitation was optimized by varying the LED power to yield emission intensities above 200 AU, corresponding to 10-50 nM labeled protein. Monolith power was set to 60%. Ligands [2′,3′-cAMP (Sigma A9376)] and [3′,5′-cAMP (Sigma A6885)] were dissolved in PBS. 0.5% Tween and premium coated capillaries were used to prevent sticking. […] MO Affinity Analysis software was used to analyze (Kd calculation) and visualize the data. Presented data are from 2-3 technical replicates."}, "[5]": {"target": "the molecule itself", "assay": "MST self-assembly, labelled Rbp47b titrated with non-labeled Rbp47b, in the presence of 50 µM 2′,3′-cAMP", "method": "as §1"}}, "data": [{"molecule": "L-Gly-L-Pro (peptide)", "values": [{"measurement": "Kd", "setting": "[1]", "result": 0.2, "unit": "µM"}]}, {"molecule": "TIA1 protein (recombinant, purchased from Origene) (from UniProt P31483 1-386)", "values": [{"measurement": "Kd", "setting": "[2]", "result": 0.0363, "unit": "µM"}, {"measurement": "Kd", "setting": "[3]", "result": 0.0206, "unit": "µM"}]}, {"molecule": "B1", "values": [{"measurement": "Kd", "setting": "[4]", "result": 0.128, "unit": "µM"}, {"measurement": "Kd", "setting": "[5]", "result": 0.0089, "unit": "µM"}]}]}
